Reference: patent US20140004106A1

Experiments:
[1] = target: 28mer peptide of the CXCR5 antigen; assay: Antigen-ELISA; standard run with LA_09_004_10
[2] = target: 28mer peptide of the CXCR5 antigen; assay: Antigen-ELISA; Citrate 10 mM pH 5.00, after 1 week at +40°C
[3] = target: 28mer peptide of the CXCR5 antigen; assay: Antigen-ELISA; PB 10 mM pH 7.50, T0
[4] = target: 28mer peptide of the CXCR5 antigen; assay: Ag-ELISA; DS in PBS, 5°C, 3 months
[5] = target: 28mer peptide of the CXCR5 antigen; assay: Antigen-ELISA; PB 5 mM pH 7.50, T0
[6] = target: 28mer peptide of the CXCR5 antigen; assay: Antigen-ELISA; PBS 155 mM pH 7.50, T0
[7] = target: 28mer peptide of the CXCR5 antigen; assay: Potency (Antigen ELISA); stored +5°C, 15 months
[8] = target: 28mer peptide of the CXCR5 antigen; assay: ELISA potency (binding); 100 mg/mL, Glycine (20), T zero
[9] = target: 28mer peptide of the CXCR5 antigen; assay: Antigen-ELISA; Acetate 10 mM pH 5.00, after 1 week at +40°C
[10] = target: 28mer peptide of the CXCR5 antigen; assay: Potency (Antigen ELISA); stored +25°C, 3 months
[11] = target: 28mer peptide of the CXCR5 antigen; assay: Potency (Antigen ELISA); stored -20°C, 18 months
[12] = target: 28mer peptide of the CXCR5 antigen; assay: Potency (Antigen ELISA); stored -20°C, 6 months
[13] = target: 28mer peptide of the CXCR5 antigen; assay: Ag-ELISA; DS in PBS, 25°C, 3 months
[14] = target: 28mer peptide of the CXCR5 antigen; assay: Antigen-ELISA; Citrate 10 mM pH 6.50, after 1 week at +40°C
[15] = target: 28mer peptide of the CXCR5 antigen; assay: Antigen-ELISA; PBS 155 mM, polyethylene low density, 24 h +40°C
[16] = target: 28mer peptide of the CXCR5 antigen; assay: Potency (Antigen ELISA); stored +5°C, 18 months
[17] = target: 28mer peptide of the CXCR5 antigen; assay: Antigen-ELISA; Glycine 10 mM pH 7, T0
[18] = target: 28mer peptide of the CXCR5 antigen; assay: Antigen-ELISA; Citrate 10 mM pH 5.50, T0
[19] = target: 28mer peptide of the CXCR5 antigen; assay: Ag-ELISA; DS in PBS, 5°C, 1 month
[20] = target: 28mer peptide of the CXCR5 antigen; assay: Antigen-ELISA; acetate 10 mM prototype D, T0
[21] = target: 28mer peptide of the CXCR5 antigen; assay: Antigen-ELISA; citrate 10 mM prototype C, T0
[22] = target: 28mer peptide of the CXCR5 antigen; assay: Potency (Antigen ELISA); stored -20°C, initial
[23] = target: 28mer peptide of the CXCR5 antigen; assay: Antigen-ELISA; Arginine 10 mM pH 6, T0
[24] = target: 28mer peptide of the CXCR5 antigen; assay: Antigen-ELISA; PBS 155 mM, clear glass type I, 24 h +40°C
[25] = target: 28mer peptide of the CXCR5 antigen; assay: Antigen-ELISA; histidine 10 mM prototype A, T0
[26] = target: 28mer peptide of the CXCR5 antigen; assay: Antigen-ELISA; standard run with LA_09_28C, T0
[27] = target: 28mer peptide of the CXCR5 antigen; assay: Antigen-ELISA; citrate 10 mM prototype D, T0
[28] = target: 28mer peptide of the CXCR5 antigen; assay: Antigen-ELISA; Arginine 10 mM pH 6, after 1 week at +40°C
[29] = target: 28mer peptide of the CXCR5 antigen; assay: Antigen-ELISA; PB 10 mM pH 7.00, T0
[30] = target: 28mer peptide of the CXCR5 antigen; assay: ELISA potency (binding); 100 mg/mL, Sucrose (60) + Mannitol (15), 7 days at 40°C
[31] = target: 28mer peptide of the CXCR5 antigen; assay: Antigen-ELISA; Citrate 10 mM pH 6.50, T0
[32] = target: 28mer peptide of the CXCR5 antigen; assay: Potency (Antigen ELISA); stored +5°C, 3 months
[33] = target: 28mer peptide of the CXCR5 antigen; assay: Antigen-ELISA; Saline 150 mM pH 6.00, T0
[34] = target: 28mer peptide of the CXCR5 antigen; assay: Antigen-ELISA; PBS 155 mM pH 6.50, after 1 week at +40°C
[35] = target: 28mer peptide of the CXCR5 antigen; assay: ELISA potency (binding); 100 mg/mL, Arginine (20) + NaCl (2), 7 days at 40°C
[36] = target: 28mer peptide of the CXCR5 antigen; assay: Potency (Antigen ELISA); stored +5°C, 12 months
[37] = target: 28mer peptide of the CXCR5 antigen; assay: Antigen-ELISA; PB 5 mM pH 7.00, T0
[38] = target: 28mer peptide of the CXCR5 antigen; assay: Antigen-ELISA; standard run with LA_09_004_5
[39] = target: 28mer peptide of the CXCR5 antigen; assay: Antigen-ELISA; PB 10 mM pH 6.50, T0
[40] = target: 28mer peptide of the CXCR5 antigen; assay: Antigen-ELISA; citrate 10 mM prototype A, T0
[41] = target: 28mer peptide of the CXCR5 antigen; assay: Antigen-ELISA; standard run with LA_09_004_7
[42] = target: 28mer peptide of the CXCR5 antigen; assay: ELISA potency (binding); 100 mg/mL, Lysine (30) + Mannitol (15), 7 days at 40°C
[43] = target: 28mer peptide of the CXCR5 antigen; assay: Antigen-ELISA; Acetate 10 mM pH 5.50, T0
[44] = target: 28mer peptide of the CXCR5 antigen; assay: Antigen-ELISA; acetate 10 mM prototype C, T0
[45] = target: 28mer peptide of the CXCR5 antigen; assay: Antigen-ELISA; PBS 155 mM pH 7.50, after mechanical stress 350 rpm 2.5 h

EC50 % [1]: 100% | EC50 % [2]: 75% | EC50 % [3]: 117% | EC50 % [4]: 112% | EC50 % [5]: 176% | EC50 % [6]: 81% | EC50 value (in comparison to reference) [7]: 114% | rel. potency [%] [8]: 170% | EC50 % [9]: 102% | EC50 value (in comparison to reference) [10]: 96% | EC50 value (in comparison to reference) [11]: 127% | EC50 value (in comparison to reference) [12]: 96% | EC50 % [13]: 108% | EC50 % [14]: 46% | EC50 % [15]: 104% | EC50 value (in comparison to reference) [16]: 119% | EC50 % [17]: 127% | EC50 % [18]: 112% | EC50 % [19]: 83% | EC50 % [20]: 91% | EC50 % [21]: 104% | EC50 value (in comparison to reference) [22]: 75% | EC50 % [23]: 114% | EC50 % [24]: 131% | EC50 % [25]: 174% | EC50 % [26]: 100% | EC50 % [27]: 94% | EC50 % [28]: 99% | EC50 % [29]: 145% | rel. potency [%] [30]: 243% | EC50 % [31]: 59% | EC50 value (in comparison to reference) [32]: 95% | EC50 % [33]: 96.2% | EC50 % [34]: 115% | rel. potency [%] [35]: 164% | EC50 value (in comparison to reference) [36]: 93% | EC50 % [37]: 68% | EC50 % [38]: 100% | EC50 % [39]: 105% | EC50 % [40]: 112% | EC50 % [41]: 100% | rel. potency [%] [42]: 297% | EC50 % [43]: 180% | EC50 % [44]: 142% | EC50 % [45]: 71%
B1: Lead CXCR5 Antibody (humanized IgG4 anti-CXCR5 antibody) (antibody, V domains shown)
VH: QVQLKESGPGLVAPSESLSITCTVSGFSLIDYGVNWIRQPPGKGLEWLGVIWGDGTTYYNPSLKSRLSISKDNSKSQVFLKVTSLTTDDTAMYYCARIVYWGQGTLVTVSA
VL: DIVMTQAAPSVAVTPGASVSISCRSSKSLLHSSGKTYLYWFLQRPGQSPQLLIYRLSSLASGVPDRFSGSGSGTAFTLRISRVEAEDVGVYYCMQHLEYPYTFGGGTKLEIKR
